Experimental data as given in patent publication US7084106.

Target: cell surface class I HLA-ABC molecules on human umbilical cord vascular endothelial cells (HUVECs) (human)
Test: flow cytometry on HUVECs, isotype-matched mouse IgG2a control

- percent binding (control threshold): < 1%
Substance: isotype-matched mouse IgG2a mAb (nonspecific mouse monoclonal antibody)
